{"source": "patent US6852842B2", "about": "“Methods for functional kidney imaging using small dendrimer contrast agents” (The United States of America as represented by the …, priority 2002, dated 2005)", "key": {"[1]": {"experiment": "Biodistribution and whole body retention of 153Gd-labeled dendrimer-1B4M-Gd conjugates", "format": "in vivo, nude mice", "settings": "for cleared from the body within 15 min after injection / excretion from the body, rank among conjugates: mouse, in vivo", "method": "Radioactive dendrimer conjugates used for biodistribution studies were prepared as follows. ^153GdCl3 containing no other stable isotope of Gd (III) was purchased from NEN DuPont (Boston, Mass.). Approximately 1,500 μg of each dendrimer (containing 2 μmol of 1B4M) was reacted with 1.11 MBq (30 μCi) of ^153Gd citrate (46 pmol) in 0.3 M citrate buffer at pH 5 for 30 min at room temperature. The preparation was then mixed with a 3-fold molar excess of non-radiolabeled Gd(III) citrate (6 μmol) to conjugate 1B4M to fully saturate the chelating groups with Gd(III). This reaction was incubated for 30 min before the addition of ethylenediaminetetraacetic acid (EDTA) and subsequent column purification. To remove any non-incorporated free metal, 10 μl of 0.5 M EDTA (Sigma, St. Louis, Mo.) was added to minimized formation of Gd(OH)3 precipitate. The product was purified using a PD-10 column (Pharmacia, Uppsala, Sweden), eluting with PBS, (pH 7.4). The radio-purity of each preparation was analyzed by size-exclusion HPLC using a TSK G3000SW column (TosoHaas, Philadelphia, Pa.; 0.1 M PBS; 0.01 M KCl; pH 7.4; 1 ml/min). DTPA (Sigma) was also labeled with ^153Gd in 0.3-M citrate buffer for 30 min at room temperature. The radiolabeling yields of all preparations ranged from 47% to 55%. The radio-purity of all preparations analyzed by size-exclusion HPLC was greater than 97%.\nSeven groups of nude mice (n=4 in each group) were injected with 37 kBq (1 μCi)/200 μl of ^153Gd-labeled dendrimer-1B4M-Gd conjugates or ^153Gd-DTPA. The injected samples were added to non-radioactive preparations and the total gadolinium dose was adjusted to 0.02 mmol Gd/kg, 20% of the dose of Gd-[DTPA]-dimeglumine routinely used clinically. The mice were sacrificed 15 min after the injection of the ^153Gd-labeled preparations and biodistribution studies were performed. The data were expressed as the percentage of the injected dose per gram (% ID/g) of tissue. The carcasses of the mice were also counted to calculate the whole body retention (% ID)."}, "kidneys of mice": {"test_system": "kidneys of mice", "experiment": "Serial dynamic high-resolution MR imaging of the kidneys of mice", "format": "in vivo", "method": "The mice were anesthetized with 1.15 mg of sodium pentobarbital (Dainabot, Osaka, Japan) and placed in the center of the coils. The fast spoiled gradient echo technique ([…] 71; flip angle 30°; scan time 3'07''; phase encoding steps 512×256; 2 number of excitations; slab thickness 16) with fat-suppression technique and serial 3D data acquisition was used to acquire images every 3.1 min from 0 (immediately after injection) to 12 min after injection of the contrast agents for all mice studied. The coronal images were reconstructed with 0.6-mm thick sections with a 0.3-mm overlap reconstruction. The field of view was 6×3 cm and the size of the matrix was 512×256. The reproducibility of the experiments (two mice in each group) was confirmed by repeating the experiments under the same conditions using a different 1.5-tesla superconductive MRI instrument (Signa Horizon, GE)."}, "[2]": {"settings": "in vivo; cited from earlier work"}, "[3]": {"experiment": "Contrast-enhanced dynamic whole body 3D-micro-MRI of mice", "format": "in vivo, nude mice", "settings": "0.03 mmol Gd/kg, all times up to 15 min", "method": "To evaluate the whole body pharmacokinetics of the contrast agents, seven groups of 8-week-old female nude mice (n=4 in each group) (NCI, Frederick, Md.) were used to obtain contrast-enhanced dynamic 3D-micro-MR images. […] All images were obtained using the high-resolution wrist coil (GE) with a custom mouse holder using a clinical-grade 1.5-tesla superconductive magnet unit (Signa LX, General Electric Medical System, Milwaukee, Wis.). The mice were anesthetized with 1.15 mg of sodium pentobarbital (Dainabot, Osaka, Japan) and placed in the center of the coils. The fast spoiled gradient echo technique ([…] 19.4/4.2; flip angle 60°; scan time 1'40''; phase encoding steps 256×256; 3 number of excitations; slab thickness 12) with chemical fat-suppression technique and serial 3D data acquisition was used to acquire images every 2 min from 0 (immediately after injection) to 14 min after injection of the contrast agents for all mice studies. The coronal images for dynamic MRI were reconstructed with 2-mm section thickness without gap reconstruction. In addition, slice data was processed into 3D images with the maximum intensity […] (MIP) method (Advantage Windows, General Electric Medical System)."}, "COX-2 knock-out mice": {"test_system": "COX-2 knock-out mice", "experiment": "Contrast-enhanced dynamic 3D-micro-MRI of mice with chronic renal failure", "format": "in vivo", "settings": "0.03 mmol Gd/kg i.v., images over 14 min post-injection", "method": "To determine if dendrimer-enhanced MR imaging according to the disclosure could detect chronic kidney failure and renal cysts, serial dynamic MR images of normal and 7 month old COX-2 knock-out mice (n=4) were obtained. The later mice have renal cysts and chronic renal failure. The contrast-enhanced dynamic MRI scans were obtained using the fast spoiled gradient echo technique (efgre3d; TR/TE 20.4/7.2; TI49; flip angle 30°; scan time 1′52″; phase encoding steps 512×256; 3 NEX; slab thickness 16) with fat-suppression technique following intravenous injection of 0.03 mmol Gd/kg G4-(1B4M-Gd)64. Serial multi-slice 3D data was obtained over a period of 14 min post-injection of the contrast agents for all mice studied. The width of the cortex and outer stripe of the outer medulla were measured. The combined width of the cortex and outer medulla measured by PAMAM-G4 enhanced MR imaging was much smaller in COX-2 knockout mice (left) than normal mice (right), and correlated with histological thickness (obtained at the time of sacrifice). […] These images show the thicker width of the cortex and outer medulla in the normal mice (FIG. 7a) in comparison to the COX-2 knockout mice (FIG. 7b). […] Thus, contrast-enhanced dynamic 3D-micro-MR imaging can be used to detect chronic renal failure and renal cysts."}, "[4]": {"settings": "mice; cited from earlier work"}}, "data": [{"molecule": "O=C([O-])CN(CCN(CC(=O)[O-])CC(=O)O)CCN(CC(=O)[O-])CC(=O)O.[153Gd+3]", "note": "[Gd-DTPA, reference compound]", "values": [{"measurement": "amount of 153Gd-labeled agent remaining in the blood", "setting": "[1]; nude mice, 15 min after injection, 0.02 mmol Gd/kg", "result": "2.7±0.1", "unit": "% ID/g"}]}, {"molecule": "CNC[C@H](O)[C@@H](O)[C@H](O)[C@H](O)CO.CNC[C@H](O)[C@@H](O)[C@H](O)[C@H](O)CO.O=C([O-])CN(CCN(CC(=O)[O-])CC(=O)O)CCN(CC(=O)[O-])CC(=O)O.[Gd+3]", "note": "[Gd-[DTPA]-dimeglumine, Gd-DTPA-dimeglumine]", "values": [{"measurement": "visualization of the proximal straight tubule of the kidney", "setting": "kidneys of mice; double dose 0.06 mmol Gd/kg", "result": "not visualized"}, {"measurement": "bright white band at the outer stripe of the outer medulla", "setting": "kidneys of mice; high-resolution coronal images, dendrimers 0.03 mmol Gd/kg, Gd-[DTPA]-dimeglumine 0.03 or 0.06 mmol Gd/kg", "result": "not observed"}, {"measurement": "MRI signal from the renal pelvis region", "setting": "kidneys of mice; higher doses, e.g. 0.1 mmol Gd/kg", "result": "loss of signal"}]}, {"molecule": "DAB-Am16-(Gd-1B4M)16 [DAB-G2]", "values": [{"measurement": "cleared from the body within 15 min after injection", "setting": "[1]", "result": "Greater than 60 % ID"}, {"measurement": "excretion from the body, rank among conjugates", "setting": "[1]", "result": "most rapidly excreted"}]}, {"molecule": "DAB-Am-32-(Gd-1B4M)32 [DAB-G3]", "values": [{"measurement": "cleared from the body within 15 min after injection", "setting": "[1]", "result": "Greater than 60 % ID"}, {"measurement": "excretion from the body, rank among conjugates", "setting": "[1]", "result": "most rapidly excreted"}]}, {"molecule": "DAB-Am-64-(Gd-1B4M)64 [DAB-G4]", "values": [{"measurement": "accumulation in the kidney vs PAMAM-G4D-(1B4M)64", "setting": "[2]", "result": "less"}, {"measurement": "accumulation in the liver vs PAMAM-G4D-(1B4M)64", "setting": "[2]", "result": "significantly more"}]}, {"molecule": "PAMAM-G2D-(Gd-1B4M)16", "values": [{"measurement": "cleared from the body within 15 min after injection", "setting": "[1]", "result": "Greater than 60 % ID"}, {"measurement": "excretion from the body, rank among conjugates", "setting": "[1]", "result": "most rapidly excreted"}]}, {"molecule": "PAMAM-G4D-(Gd-1B4M)64", "values": [{"measurement": "MRI signal intensity in the left ventricle of the heart", "setting": "[3]", "result": "highest"}, {"measurement": "combined width of the cortex and outer medulla in COX-2 knockout mice vs normal mice by enhanced MR imaging", "setting": "COX-2 knock-out mice", "result": "much smaller"}, {"measurement": "injected dose excreted during the first two days following administration", "setting": "[4]", "result": 20, "unit": "% ID"}]}]}
